Where two headings read alike, the source gives them in different places. Values belong to the molecule of their own block, whether it stands above or below them.
Key:
[1] = system: JHH5; test: Cell line sensitivity (proliferation, CellTiter-GloII), JHH5; assay type: cell-based; details: 120 h
Protocol: (§1) Various GPC3-expressing cell lines were tested for sensitivity to free nemorubicin derivative, PNU-159682, which has the structure:
(§2) [drawing 32] as follows. Proliferation in the presence of PNU-159682 or SG-2057 were assessed using cells plated at 1000 cells per well in 50 μl of normal growth medium in 96-well clear-bottom plates (PerkinElmer Life Sciences). Twenty-four hours later, an additional 50 μl of culture medium with serial dilutions of the drug was added to triplicate wells. Three or 5 days later, cell numbers were determined using CellTiter-GloII (Promega Corp.) and with an EnVision 2101 multilabel reader (PerkinElmer).

[2] = system: JHH7; test: Cell line sensitivity (proliferation, CellTiter-GloII), JHH7; assay type: cell-based
Protocol: as §1, §2

[3] = system: PC3; test: Cell line sensitivity (proliferation, CellTiter-GloII), PC3; assay type: cell-based; details: Homo sapiens, PC-3, 120 h
Protocol: as §1, §2

[4] = system: HepG2; test: Cell line sensitivity (proliferation, CellTiter-GloII), HepG2; assay type: cell-based; details: Homo sapiens
Protocol: as §1, §2

[5] = system: 293S; test: Cell line sensitivity (proliferation, CellTiter-GloII), 293S; assay type: cell-based; details: 120 h
Protocol: as §1, §2

[6] = system: Hep3B.2.1-7; test: Cell line sensitivity (proliferation, CellTiter-GloII), Hep3B.2.1-7; assay type: cell-based; details: 120 h
Protocol: as §1, §2

[7] = system: 293_GPC3; test: Cell line sensitivity (proliferation, CellTiter-GloII), 293_GPC3; assay type: cell-based; details: 120 h
Protocol: as §1, §2

[8] = system: Huh7; test: Cell line sensitivity (proliferation, CellTiter-GloII), Huh7; assay type: cell-based; details: Homo sapiens, Huh-7, 120 h
Protocol: as §1, §2

[9] = target: T1, human GPC3 (Homo sapiens, UniProt P51654); test: FACS binding to huGPC truncation constructs on 293 cells; details: huGPC(aa359-420) on 293 cells
T1 construct: C-terminal glycophosphatidylinositol anchor (GPI link) (C); expressed in transfected cells; host or cells: 293 cells
T1 sequence (P51654 359-420): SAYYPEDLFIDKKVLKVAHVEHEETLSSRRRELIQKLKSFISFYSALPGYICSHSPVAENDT
Text: (§3) C-terminal truncation constructs of huGPC(aa359-589) were made to further refine the epitopes for antibodies 4A11 and 15G1. Three different […] truncations were made, comprising amino acids 359 to 420 of human GPC3, amino acids 359 to 470 of human GPC3, and amino acids 359 to 509 of human GPC3. The three C-terminal truncations each comprised an HSV N-terminal signal sequence (SS) and gD sequence (SEQ ID NO: 41) and C-terminal glycophosphatidylinositol anchor (GPI link). The huGPC truncation constructs were expressed on the surface of 293 cells and antibody binding was determined by FACS. An anti-gD was used as a positive control. Vector-transfected 293 cells were used as a negative control.

[10] = target: T2, human GPC3 (Homo sapiens, UniProt P51654); test: as above; details: huGPC(aa359-559) on 293 cells
T2 construct: C-terminal glycophosphatidylinositol anchor (GPI link) (C); expressed in transfected cells; host or cells: 293 cells
T2 sequence (P51654 359-559): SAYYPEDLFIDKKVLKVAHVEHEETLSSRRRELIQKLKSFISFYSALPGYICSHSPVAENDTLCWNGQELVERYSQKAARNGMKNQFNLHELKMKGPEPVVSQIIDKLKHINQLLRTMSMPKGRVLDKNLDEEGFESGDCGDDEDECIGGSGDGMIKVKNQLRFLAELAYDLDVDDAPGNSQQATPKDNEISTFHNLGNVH
Text: as §3

[11] = target: T3, human GPC3 (Homo sapiens, UniProt P51654); test: as above; details: huGPC(aa359-470) on 293 cells
T3 construct: C-terminal glycophosphatidylinositol anchor (GPI link) (C); expressed in transfected cells; host or cells: 293 cells
T3 sequence (P51654 359-470): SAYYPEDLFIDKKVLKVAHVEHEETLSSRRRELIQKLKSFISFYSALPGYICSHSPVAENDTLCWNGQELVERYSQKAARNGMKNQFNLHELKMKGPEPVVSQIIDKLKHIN
Text: as §3

[12] = target: T4, human GPC3 (Homo sapiens, UniProt P51654); test: as above; details: huGPC(aa359-509) on 293 cells
T4 construct: C-terminal glycophosphatidylinositol anchor (GPI link) (C); expressed in transfected cells; host or cells: 293 cells
T4 sequence (P51654 359-509): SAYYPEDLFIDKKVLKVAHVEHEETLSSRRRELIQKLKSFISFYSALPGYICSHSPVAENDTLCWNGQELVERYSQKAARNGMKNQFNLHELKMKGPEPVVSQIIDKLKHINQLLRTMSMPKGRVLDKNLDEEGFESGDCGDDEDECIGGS
Text: as §3

[13] = target: T5, full-length N-terminal gD-tagged rat GPC3 (Rattus norvegicus, UniProt P13265); test: FACS binding to rat GPC3 on 293 cells; details: rat GPC3 expressed on the surface of 293 cells
T5 construct: full-length N-terminal gD-tagged rat GPC3 expressed on the surface of 293 cells by FACS; gD (N); expressed in transfected cells; host or cells: 293 cells
T5 sequence (P13265 with tags, fused parts or gaps limits assumed): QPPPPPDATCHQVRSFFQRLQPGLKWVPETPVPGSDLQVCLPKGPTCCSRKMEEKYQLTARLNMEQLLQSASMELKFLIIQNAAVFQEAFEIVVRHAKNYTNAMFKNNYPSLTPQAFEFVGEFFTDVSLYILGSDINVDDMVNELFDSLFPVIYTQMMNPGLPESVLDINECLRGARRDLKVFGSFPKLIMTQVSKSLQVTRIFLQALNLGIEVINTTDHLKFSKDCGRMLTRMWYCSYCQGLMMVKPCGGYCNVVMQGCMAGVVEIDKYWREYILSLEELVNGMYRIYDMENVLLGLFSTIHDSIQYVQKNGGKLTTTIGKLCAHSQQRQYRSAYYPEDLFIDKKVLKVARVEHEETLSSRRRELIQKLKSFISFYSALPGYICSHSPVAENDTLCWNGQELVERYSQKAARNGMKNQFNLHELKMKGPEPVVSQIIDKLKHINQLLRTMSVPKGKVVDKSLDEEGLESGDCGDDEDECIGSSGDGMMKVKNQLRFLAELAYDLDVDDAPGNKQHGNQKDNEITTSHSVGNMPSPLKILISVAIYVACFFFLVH
Protocol: (§4) Antibodies 15G1 and 4A11 were tested for binding to full-length N-terminal gD-tagged cynomolgus monkey GPC3 and full-length N-terminal gD-tagged rat GPC3 expressed on the surface of 293 cells by FACS. Both antibodies bound to cynomolgus monkey GPC3. 15G1, but not 4A11, also bound to rat GPC3. […] The 7H1 epitope is also highly conserved between human, cynomolgus monkey, rhesus macaque, mouse, and rat GPC3, and as discussed above, antibody 7H1 detects human, cynomolgus monkey, rat, and mouse GPC3 by Western blot.

[14] = system: full-length N-terminal gD-tagged cynomolgus monkey GPC3; test: FACS binding to cynomolgus monkey GPC3 on 293 cells; details: cynomolgus monkey GPC3 expressed on the surface of 293 cells
Sequence of full-length N-terminal gD-tagged cynomolgus monkey GPC3 (as listed by the source): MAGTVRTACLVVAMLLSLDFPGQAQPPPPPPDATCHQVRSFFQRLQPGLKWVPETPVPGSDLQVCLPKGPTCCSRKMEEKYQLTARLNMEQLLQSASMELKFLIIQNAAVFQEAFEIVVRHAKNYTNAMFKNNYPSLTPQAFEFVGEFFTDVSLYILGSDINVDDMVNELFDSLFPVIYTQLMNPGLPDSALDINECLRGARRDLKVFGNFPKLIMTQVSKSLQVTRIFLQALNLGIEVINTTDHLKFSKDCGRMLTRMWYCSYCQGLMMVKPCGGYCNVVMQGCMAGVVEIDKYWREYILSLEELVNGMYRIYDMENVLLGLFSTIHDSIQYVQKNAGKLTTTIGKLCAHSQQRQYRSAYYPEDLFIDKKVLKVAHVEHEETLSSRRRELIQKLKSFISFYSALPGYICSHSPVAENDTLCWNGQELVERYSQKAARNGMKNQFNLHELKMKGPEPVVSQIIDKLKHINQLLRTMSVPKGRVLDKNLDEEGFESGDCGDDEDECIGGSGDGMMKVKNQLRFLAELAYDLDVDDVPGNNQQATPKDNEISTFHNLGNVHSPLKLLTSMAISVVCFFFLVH
Sequence of cynomolgus monkey GPC3 (as listed by the source): as above
Protocol: as §4

[15] = target: T6, GPC3 (Homo sapiens, UniProt P51654); test: Western blot detection of human GPC3; assay type: binding
Text: (§5) Antibody 7H1 also detects human, cynomolgus monkey, rat, and mouse GPC3 by Western blot.
Target sequence in this assay (P51654 25-554): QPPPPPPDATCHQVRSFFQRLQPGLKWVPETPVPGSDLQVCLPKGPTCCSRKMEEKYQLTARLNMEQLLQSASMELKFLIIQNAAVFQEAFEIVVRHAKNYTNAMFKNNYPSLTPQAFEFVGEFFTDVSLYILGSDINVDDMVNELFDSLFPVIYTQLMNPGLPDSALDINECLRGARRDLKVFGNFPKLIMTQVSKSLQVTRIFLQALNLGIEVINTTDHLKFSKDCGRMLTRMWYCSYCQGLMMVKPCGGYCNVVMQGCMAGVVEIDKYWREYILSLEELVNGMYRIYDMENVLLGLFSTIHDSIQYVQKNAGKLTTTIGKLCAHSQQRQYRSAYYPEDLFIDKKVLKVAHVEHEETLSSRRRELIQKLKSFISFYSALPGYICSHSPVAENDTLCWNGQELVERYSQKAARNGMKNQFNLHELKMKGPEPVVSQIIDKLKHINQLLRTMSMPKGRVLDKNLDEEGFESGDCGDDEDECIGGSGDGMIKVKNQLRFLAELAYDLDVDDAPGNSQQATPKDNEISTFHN

[16] = target: T6, GPC3; test: Binding to GPC3-expressing cells by FACS; design: endogenous in cells
Text: (§6) Positive clones were expanded and re-screened for binding to huGPC3, cynoGPC3, and HepG2 cells by ELISA, FACS, and immunohistochemistry (IHC). Thirteen antibodies were selected and purified, including antibodies 7H1 and 4G7. The heavy and light chain variable region sequences of antibody 7H1 are shown in SEQ ID NOs: 2 and 3, respectively. The heavy and light chain variable region sequences of antibody 4G7 are shown in SEQ ID NOs: 26 and 27, respectively.
as §5
Target sequence in this assay (P51654 25-554): as above

[17] = target: T6, GPC3; test: FACS binding to human GPC3 fragments expressed on 293S cells; design: C-terminal glycophosphatidylinositol anchor (GPI link) (C); expressed in transfected cells; host or cells: 293S cells, transient
Text: (§7) C-terminal truncation constructs of human GPC3 were made to further refine the epitopes for antibodies 7H1 and 4G7. […] The three C-terminal truncations each comprised the GPC N-terminal signal sequence (SS) and C-terminal glycophosphatidylinositol anchor (GPI link). […] See FIG. 7 (Santa Cruz Biotechnology antibody 1G12, which was raised to amino acids 511-580 of human GPC3, was used as a positive control for C-terminal fragment binding). Antibody 7H1 was reformatted as a chimeric antibody with human A118C cysteine-engineered IgG1 and Igκ constant regions (SEQ ID NOs: 42 and 43).

[18] = system: cynomolgus monkey GPC3; test: Western blot detection of cynomolgus monkey GPC3; assay type: binding
Text: as §5

[19] = target: T6, GPC3; test: Reactivity by immunohistochemistry (IHC); assay type: binding; design: endogenous in cells
Text: as §6, §5
Target sequence in this assay (P51654 25-554): as above

[20] = target: rat GPC3 (Rattus norvegicus, UniProt P13265); test: Western blot detection of rat GPC3; assay type: binding
Sequence of rat GPC3 (P13265 with tags, fused parts or gaps limits assumed): as the sequence (P13265 with tags, fused parts or gaps limits assumed) above
Text: as §5

[21] = target: T6, GPC3; test: Western blot binding to C-terminal truncation constructs of human GPC3; design: C-terminal glycophosphatidylinositol anchor (GPI link) (C); expressed in transfected cells; host or cells: 293S cells, transient
Text: as §7

[22] = target: biotinylated GPC3 (Homo sapiens, UniProt P51654); test: Epitope binning competition assay (Octet RED384); assay type: binding; details: 7H1 or 4G7 as first saturating antibody 10 μg/ml; competing antibodies 5 μg/ml
Sequence of biotinylated GPC3 (P51654 25-554): as the sequence (P51654 25-554) above
Protocol: Epitope binning of anti-GPC3 antibodies was performed using a competition assay. Using the Octet RED384 instrument (ForteBio), biotinylated GPC3 was captured onto Streptavidin biosensors at 10 μg/ml for 600 seconds. Binding of the first antibody to saturation was achieved by adding 10 μg/ml for 600 seconds. The same biosensors were dipped into the competing antibodies at 5 μg/ml and binding was measured for 600 seconds. […] Antibody 7H1 was used as the first saturating antibody. A subsequent experiment was performed using antibody 4G7 as the first saturating antibody.

[23] = target: mouse GPC3 (Mus musculus, UniProt Q8CFZ4); test: Western blot detection of mouse GPC3; assay type: binding
Sequence of mouse GPC3 (Q8CFZ4 25-553): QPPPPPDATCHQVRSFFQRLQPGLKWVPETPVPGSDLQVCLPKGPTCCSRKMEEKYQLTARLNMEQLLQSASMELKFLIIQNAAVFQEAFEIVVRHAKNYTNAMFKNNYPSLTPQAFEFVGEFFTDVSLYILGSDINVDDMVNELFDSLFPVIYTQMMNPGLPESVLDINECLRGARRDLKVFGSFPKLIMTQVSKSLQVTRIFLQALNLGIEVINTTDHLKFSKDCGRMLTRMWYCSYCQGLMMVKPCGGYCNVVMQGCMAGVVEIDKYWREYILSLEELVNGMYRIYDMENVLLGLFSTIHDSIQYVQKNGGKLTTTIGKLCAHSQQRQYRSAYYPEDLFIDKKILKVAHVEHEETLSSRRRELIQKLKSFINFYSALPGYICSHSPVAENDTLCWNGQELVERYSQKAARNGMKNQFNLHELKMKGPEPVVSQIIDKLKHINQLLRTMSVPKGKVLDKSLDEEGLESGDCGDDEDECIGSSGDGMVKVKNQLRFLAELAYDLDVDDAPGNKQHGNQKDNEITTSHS
Text: as §5

Molecule: COc1cccc2c1C(=O)c1c(O)c3c(c(O)c1C2=O)C[C@@](O)(C(=O)CO)C[C@@H]3O[C@H]1C[C@H]2[C@H](O[C@@H]3[C@@H](OC)OCCN32)[C@H](C)O1 [PNU-159682]
EC50 ([1]; JHH5, free drug, cell numbers three or 5 days after drug addition, read-out: EC50): 0.031 nM
EC50 ([2]; 120 h, JHH7, free drug, cell numbers three or 5 days after drug addition, read-out: EC50): 0.038 nM
EC50 ([3]; PC3, free drug, cell numbers three or 5 days after drug addition, read-out: EC50): 0.051 nM
EC50 ([4]; 120 h, HepG2, free drug, cell numbers three or 5 days after drug addition, read-out: EC50): 0.029 nM
EC50 ([5]; 293S, free drug, cell numbers three or 5 days after drug addition, read-out: EC50): 0.022 nM
EC50 ([6]; Hep3B.2.1-7, free drug, cell numbers three or 5 days after drug addition, read-out: EC50): 0.042 nM
EC50 ([7]; 293_GPC3, free drug, cell numbers three or 5 days after drug addition, read-out: EC50): 0.019 nM
EC50 ([8]; Huh7, free drug, cell numbers three or 5 days after drug addition, read-out: EC50): 0.029 nM

Molecule: C=C1C[C@H]2C=Nc3cc(OCCCCCOc4cc5c(cc4OC)C(=O)N4CC(=C)C[C@H]4C=N5)c(OC)cc3C(=O)N2C1 [SG-2057]
EC50 [1]: 0.105 nM
EC50 ([2]; JHH7, 120 h): 0.135 nM
EC50 [3]: 0.122 nM
EC50 ([4]; HepG2, 120 h): 0.029 nM
EC50 [5]: 0.056 nM
EC50 [6]: 0.474 nM
EC50 [7]: 0.034 nM
EC50 [8]: 0.147 nM

Binding by FACS [9]: not
Binding by FACS [10]: bound
Binding by FACS [11]: bound
Binding by FACS [12]: bound
Binding by FACS [13]: bound
B1: 15G1: anti-GPC3 monoclonal antibody; heavy and light chain variable regions SEQ ID NOs: 18 and 19 (antibody, V domains shown)
VH: EVQLLETGGGLVQPGGSRGLSCEGSGFTFSGFWMSWVRQTPGKTLEWIGDINSDGSSINYAPSIKDRFTIFRDNDKSILYLQMTNVRSEDTGTYFCVTTYGDYWGQGTTLTVSS
VL: DIVMTQSQKFMSTSVGDRVSVTCKASQNVGSHVGWYQQKSGQSPKALIYSASNRYIGVPDRFTGSGSGTDFTLTISNVQSEDLAEYFCQQYHIYPYTFGGGTRLEIK
Binding by FACS [14]: bound

Detection by Western blot [15]: detects
Reactivity by FACS ([16]; 293S cells expressing GPC3): react strongly
Reactivity by FACS ([16]; HepG2 X1 cells): react strongly
Binding by FACS ([17]; N-terminal fragment, amino acids 25 to 358 of human GPC3, on 293S cells): bind
Binding by FACS ([17]; amino acids 25 to 137 of human GPC3, transiently expressed on 293S cells): bind
Binding by FACS ([17]; amino acids 25 to 247 of human GPC3, transiently expressed on 293S cells): bind
Reactivity by IHC ([19]; HepG2 cells): react strongly
Reactivity by IHC ([19]; JHH cells): react strongly
Reactivity by IHC ([19]; cells stably transfected with GPC3): react strongly
Reactivity by IHC ([19]; hepatic cancer tissue microarray): react strongly
Detection by Western blot [20]: detects
Binding by Western blot ([21]; amino acids 25 to 137 of human GPC3): bind
Binding by Western blot ([21]; amino acids 25 to 247 of human GPC3): bind
Binding by Western blot ([21]; amino acids 25 to 358 of human GPC3): bind
Epitope bin [22]: different epitope bins
Detection by Western blot [23]: detects
B2: 7H1: anti-GPC3 monoclonal antibody; heavy and light chain variable regions SEQ ID NOs: 2 and 3 (antibody, V domains shown)
VH: QVQLQQSGPELVKPGASVKISCKASGYTFTDYYINWVKQKPGQGLEWIGWIYPGSGHTECNETFKGKATLTVDTSSSTAYMQLSSLTSEDTAVYFCTRGYYAPMGYFDYWGQGTTLTVSS
VL: DIQMTQSPSSLSASLGERVSLTCRASQEISGYLSWLQQKPDGTIKRLIYAASTLDSGVPKRFSGSRSGSDYSLTISGLESEDFADYYCLQYASYPYTFGGGTKLEIK
Detection by Western blot [18]: detects

Binding by FACS [9]: not
Binding by FACS [10]: bound
Binding by FACS [11]: not
Binding by FACS [12]: bound
Binding by FACS [13]: not
B3: 4A11: anti-GPC3 monoclonal antibody; heavy and light chain variable regions SEQ ID NOs: 10 and 11 (antibody, V domains shown)
VH: EVQLQQSAAELARPGASVRMSCRTSGYTFTTYTIHWMKQRPGQGLEWIGYINPNGGYTEYNQKFRDRTTLTADKSSSTAYMQLSSLTSEDSAVYYCTRNFDYWGQGTTLTVSS
VL: DIVMTQSPSSMYASLGERVTITCKASQDINSYLSWFQQKPGKSPKTLIYRVNRLVDGVPSRFSGSGSGQDYSLTISSLEYEDVGIYYCLQYDEFPLTLGAGTKLELK
Binding by FACS [14]: bound

— patent US9926377B2, “Anti-GPC3 antibodies and immunoconjugates” (GENENTECH, INC., priority 2014, dated 2018)
